Results as given in patent US12552837B2, “Bicyclic peptide ligands with detectable moieties and uses thereof” (BicycleRD Limited, priority 2017, dated 2026).
*1 amine or outer side, *2 acyl side, *3 side chain or, on linkers, in order; H or OH if unused. Where a SMILES comes first, the peptide text is derived from it. Bridges are numbered along the chain shown (N, C = ends). Where no end group is shown, it is not given here. [ ]: non-standard residue; d: D form. The star is where a group is joined. DOTA = O=C(O)CN1CCN(CC(=O)O)CCN(CC(=O)*)CCN(CC(=O)O)CC1; 1Nal = N[C@@H](Cc1cccc2ccccc12)C(=O)O; TBMB = c1c(C[*:1])cc(C[*:3])cc1C[*:2]; hArg = N=C(N)NCCCC[C@H](N)C(=O)O; Tle = CC(C)(C)[C@H](N)C(=O)O; Aib = CC(C)(N)C(=O)O; βAla = NCCC(=O)O; Sar = CNCC(=O)O

Legend:
[1] = biological target: human CAIX (Homo sapiens, UniProt Q16790); conditions: bicyclic peptide formed with TBMB; as described in UK provisional application P2120; read-out: Kd of CAIX binder; cited from earlier work
[2] = biological target: integrin αvβ3 (Homo sapiens, UniProt P05106+P06756); conditions: bicyclic peptide formed with TBMB; as described in UK provisional application P2122; read-out: Ki of αvβ3 binder; cited from earlier work
[3] = system: xenograft tumor; experiment: μPET imaging with 68Ga-labelled Bicycle peptides in xenograft mice; type: in vivo; conditions: 150 pmoles
Experimental: General method for μPET imaging: the mice were anaesthetized (2% sevoflurane, Abbott), placed into the small animal PET scanner (Inveon PET, Siemens) and injected with 68Ga-labeled Bicycle peptides. A 20 min transmission scan, a 50 min dynamic scan and a static scan from 100 to 120 min p.i. were performed. Images were reconstructed iteratively using the space alternating generalized expectation maximization method (SAGE, 16 subsets, 4 iterations) applying median root prior correction and were converted to standardized uptake value (SUV) images. Quantitation was done using a ROI (region of interest) technique and expressed as SUVmean.
General method for radiolabeling with Ga-68: ^68Ga (half-life 68 min; β^+ 89%; Eβ+max. 1.9 MeV) was obtained from a in house ^68Ge/^68Ga generator based on pyrogallol resin support. 1 GBq ^68Ga was eluted using 5.5 M HCl. The activity was trapped on a small anion-exchanger cartridge (AG1X8, Biorad, Richmond, CA, USA) as [^68Ga]GaCl4^−. The radiogallium was eluted from the cartridge in a final volume of 300 μL ultrapure water (Merck, Darmstadt, Germany) as [^68Ga]GaCl3.
1 nmol Bicycle peptide in 1 μL DMSO was added to a mixture of 50 μL 0.05 M HEPES, 0.1% Tween-20, and 80 μL [^68Ga]Ga^3+ eluate (˜200 MBq). The pH of the labelling solution was adjusted to 4.2 using 30% NaOH. The reaction mixture was incubated at 98° C. for 10 minutes. The radiochemical yield (RCY) was determined using reversed-phase high performance liquid chromatography (RP-HPLC; Chromolith RP-18e, 100×4.6 mm; Merck, Darmstadt, Germany). The analytical HPLC run was performed using a linear A-B gradient (0% B to 100% B in 6 min) at a flow rate of 4 mL/min. Solvent A consisted of 0.1% aqueous TFA and solvent B was 0.1% TFA in CH3CN.
For μPET imaging, the labelling reaction mixture was diluted in injection buffer (0.25 M Na-Acetate 0.05% Tween-20 pH 7) by a factor of 6 to obtain 150 pmoles in 100 μL injection buffer. The anaesthetized mouse (2% sevoflurane, Abbott) was injected with 100 μL of ^68Ga-labelled I-23 (˜25 MBq) and placed in a small animal PET scanner (Inveon PET, Siemens). The imaging was performed 60 min post-injection and included a 15 min transmission scan before injection and a 60 min emission scan post-injection. Scans from μPET imaging were reconstructed iteratively using the space alternating generalized expectation maximization method (SAGE, 16 subsets, 4 iterations) applying median root prior correction and were converted to standardized uptake value (SUV) images. Quantitation was accomplished using an ROI (region of interest) technique and expressed as SUVmean.
The radiolabelling with Ga-68 was done as described before. […] Quantitation was accomplished using an ROI (region of interest) technique and expressed as SUVmean. […]

[4] = biological target: MT1-MMP hemopexin domain (Homo sapiens, UniProt P50281); conditions: bicyclic peptide formed with TBMB; as described in WO 2016/067035; read-out: Kd of MT1-MMP binder; cited from earlier work

Sequence of integrin αvβ3 (P06756 31-889 limits assumed): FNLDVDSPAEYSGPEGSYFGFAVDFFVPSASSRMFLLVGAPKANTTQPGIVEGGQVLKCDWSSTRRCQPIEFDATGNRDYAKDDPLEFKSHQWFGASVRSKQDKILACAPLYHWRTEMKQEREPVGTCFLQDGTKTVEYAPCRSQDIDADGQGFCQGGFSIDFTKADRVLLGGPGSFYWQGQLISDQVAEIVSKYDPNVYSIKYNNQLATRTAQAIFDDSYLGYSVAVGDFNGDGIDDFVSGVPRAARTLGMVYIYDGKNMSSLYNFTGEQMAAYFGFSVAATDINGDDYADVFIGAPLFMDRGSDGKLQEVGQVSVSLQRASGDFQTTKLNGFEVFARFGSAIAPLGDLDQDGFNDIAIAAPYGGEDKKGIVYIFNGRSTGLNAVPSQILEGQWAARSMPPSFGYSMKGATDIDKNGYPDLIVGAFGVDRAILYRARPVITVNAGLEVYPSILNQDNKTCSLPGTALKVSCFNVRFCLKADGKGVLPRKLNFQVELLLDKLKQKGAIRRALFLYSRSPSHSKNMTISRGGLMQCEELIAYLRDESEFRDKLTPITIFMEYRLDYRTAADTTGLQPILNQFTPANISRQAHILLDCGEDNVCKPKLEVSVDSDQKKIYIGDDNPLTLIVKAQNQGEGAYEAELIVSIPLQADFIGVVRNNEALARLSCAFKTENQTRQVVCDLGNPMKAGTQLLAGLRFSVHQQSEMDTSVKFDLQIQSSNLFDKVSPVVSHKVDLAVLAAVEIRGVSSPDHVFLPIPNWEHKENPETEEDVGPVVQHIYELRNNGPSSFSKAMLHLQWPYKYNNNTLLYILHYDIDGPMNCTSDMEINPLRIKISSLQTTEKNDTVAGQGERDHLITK
Sequence of integrin αvβ3 (P06756 891-1048 partner limits assumed): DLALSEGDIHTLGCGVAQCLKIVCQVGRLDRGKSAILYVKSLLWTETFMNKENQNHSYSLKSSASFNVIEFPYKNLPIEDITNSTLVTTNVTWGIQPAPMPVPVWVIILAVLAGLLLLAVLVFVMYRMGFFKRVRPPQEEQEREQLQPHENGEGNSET
Sequence of integrin αvβ3 (P05106 27-788): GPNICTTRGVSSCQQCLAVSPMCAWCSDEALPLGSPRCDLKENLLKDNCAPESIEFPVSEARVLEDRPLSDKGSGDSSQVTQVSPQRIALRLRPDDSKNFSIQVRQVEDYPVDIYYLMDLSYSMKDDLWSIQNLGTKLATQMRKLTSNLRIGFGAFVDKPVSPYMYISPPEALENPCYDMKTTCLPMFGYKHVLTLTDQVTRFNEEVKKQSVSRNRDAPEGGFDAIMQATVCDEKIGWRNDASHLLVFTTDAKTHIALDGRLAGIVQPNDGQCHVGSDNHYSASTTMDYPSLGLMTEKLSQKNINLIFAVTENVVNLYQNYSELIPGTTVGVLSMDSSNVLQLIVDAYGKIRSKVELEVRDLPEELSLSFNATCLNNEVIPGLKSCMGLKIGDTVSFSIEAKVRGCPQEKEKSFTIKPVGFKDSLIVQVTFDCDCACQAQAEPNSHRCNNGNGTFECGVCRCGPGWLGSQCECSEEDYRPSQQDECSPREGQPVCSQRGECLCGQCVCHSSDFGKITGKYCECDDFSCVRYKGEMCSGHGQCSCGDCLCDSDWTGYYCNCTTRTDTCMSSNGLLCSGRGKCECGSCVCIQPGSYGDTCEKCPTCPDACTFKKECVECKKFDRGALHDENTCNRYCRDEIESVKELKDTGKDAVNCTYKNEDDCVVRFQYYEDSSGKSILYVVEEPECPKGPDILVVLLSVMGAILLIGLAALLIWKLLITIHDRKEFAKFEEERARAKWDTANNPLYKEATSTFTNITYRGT

For “βA1a-Sar10-A-CTECWVDGWVPC [compound 3, "peptide 3"]”, the Kd [1] is given as 10 nM.
In the case of “Ac-CIL(HArg)PNCDLDGRCA-Sar6-(D-K) [compound 5, "peptide 5"]”, the Ki [2] is listed as 15 nM.
In the case of CC(C)[C@H](NC(=O)[C@@H](CC(=O)O)NC(=O)[C@H](Cc1c[nH]cn1)NC(=O)CN(C)C(=O)CN(C)C(=O)CN(C)C(=O)CN(C)C(=O)CN(C)C(=O)CN(C)C(=O)CN(C)C(=O)CN(C)C(=O)CN(C)C(=O)CN(C)C(=O)CCNC(=O)CN1CCN(CC(=O)O)CCN(CC(=O)O)CCN(CC(=O)O)CC1)C(=O)N1CCC[C@H]1C(=O)N[C@H]1CSCc2cc3cc(c2)CSC[C@H](NC(=O)[C@H](Cc2cccc4ccccc24)NC(=O)[C@H](Cc2ccccc2)NC(=O)C(C)(C)NC(=O)CNC(=O)[C@H](Cc2cccc4ccccc24)NC(=O)C(C)(C)NC1=O)C(=O)N1CCC[C@H]1C(=O)N[C@@H](C(C)(C)C)C(=O)N[C@@H](CC(N)=O)C(=O)N[C@@H](CCCCNC(=N)N)C(=O)N1CCC[C@H]1C(=O)N[C@H](CC(=O)O)C(=O)N[C@H](C(N)=O)CSC3 [I-15] ({DOTA-βAla}-[Sar][Sar][Sar][Sar][Sar][Sar][Sar][Sar][Sar][Sar]H[dD]VPC[Aib][1Nal]G[Aib]F[1Nal]CP[Tle]N[hArg]P[dD]C-NH2; linker 15-22-29 via TBMB), the “liver uptake in PET imaging” value [3] is reported as “clearly reduced liver uptake” and the “tumor signal in PET imaging” value [3] is reported as “extremely high”.
For “βAla-Sar10-A-C(D-Ala)NE(1Nal)(D-Ala)CEDFYD(tBuGLy)C ([βAla][Sar][Sar][Sar][Sar][Sar][Sar][Sar][Sar][Sar][Sar]AC[dA]NE[1Nal][dA]CEDFYD[Tle]C; linker 13-19-26 via TBMB) [17-69-07-N241, "peptide 1 (17-69-07-N241)"]”, the Kd [4] is listed as 1.2 nM.
